Data published in patent publication US20250277029A1 (Amgen, published 2025).

Legend:
[1] = target: human cannabinoid receptor 1 (huCB1), full length, expressed on cells (human, UniProt P21554 1-472); assay: cell-based or functional assay
[2] = target: T1, His-tagged huCB1-ND (human, UniProt P21554 99-414, limits assumed); assay: flow cytometry, yeast-displayed Fab, 0.5 nM CB1 ND
T1 construct: The real construct may be truncated or engineered; also called CB1-nanodisc; not shown: histidine purification tag

[3] = target: T2, GFP-fused huCB1-SMALP (human, UniProt P21554 1-472); assay: flow cytometry, yeast-displayed Fab, 5 nM CB1 SMALP
T2 construct: Human CB1 fused to GFP in styrene maleic acid lipoparticles, made as in Luna et al. 2018; also called huCB1-GFP-SMALP; GFP-tagged huCB1-SMALP; not shown: GFP fused to huCB1

[4] = target: T3, Empty ND; assay: flow cytometry, yeast-displayed Fab, 50 nM Empty ND
T3 construct: It carries no receptor; the scaffold is its only protein; also called empty nanodisc

[5] = target: T2, GFP-fused huCB1-SMALP; assay: flow cytometry, yeast-displayed Fab, 10 nM CB1 SMALP

T1 sequence (P21554 99-414 limits assumed): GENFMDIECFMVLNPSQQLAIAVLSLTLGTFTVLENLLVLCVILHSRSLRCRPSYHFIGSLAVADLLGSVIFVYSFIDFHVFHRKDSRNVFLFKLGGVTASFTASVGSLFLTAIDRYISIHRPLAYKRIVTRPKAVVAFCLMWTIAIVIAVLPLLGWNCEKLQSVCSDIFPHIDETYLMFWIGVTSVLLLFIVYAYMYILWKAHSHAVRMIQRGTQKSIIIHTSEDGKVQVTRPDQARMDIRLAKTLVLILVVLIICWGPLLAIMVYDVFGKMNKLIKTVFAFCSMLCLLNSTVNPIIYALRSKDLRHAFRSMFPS
T2 sequence (P21554 whole entry, the tested form may be a part): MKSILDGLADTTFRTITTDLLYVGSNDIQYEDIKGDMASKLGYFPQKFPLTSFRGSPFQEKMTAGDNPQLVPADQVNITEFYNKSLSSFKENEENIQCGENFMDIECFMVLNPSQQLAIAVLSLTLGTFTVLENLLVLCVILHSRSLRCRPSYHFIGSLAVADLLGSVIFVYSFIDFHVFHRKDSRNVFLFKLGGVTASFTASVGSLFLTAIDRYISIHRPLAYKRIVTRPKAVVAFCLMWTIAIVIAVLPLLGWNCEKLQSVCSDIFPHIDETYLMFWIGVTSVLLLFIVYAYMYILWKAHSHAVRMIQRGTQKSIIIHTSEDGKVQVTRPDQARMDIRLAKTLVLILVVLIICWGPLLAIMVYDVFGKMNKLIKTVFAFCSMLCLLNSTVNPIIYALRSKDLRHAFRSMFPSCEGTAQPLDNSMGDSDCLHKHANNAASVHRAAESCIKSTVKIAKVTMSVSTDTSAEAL
Sequence of human cannabinoid receptor 1 (huCB1), full length, expressed on cells (P21554 whole entry): as the sequence (P21554 whole entry, the tested form may be a part) above

| Binder | Mean IC50 (nM), cAMP antagonist assay [1] [nM] | Mean IC50, -fold vs Rimo [1] [fold vs Rimonabant] | n = 1 IC50 (nM), cAMP antagonist assay [1] [nM] | n = 1 IC50, -fold vs Rimo [1] [fold vs Rimonabant] | n = 2 IC50 (nM), cAMP antagonist assay [1] [nM] | n = 2 IC50, -fold vs Rimo [1] [fold vs Rimonabant] | relative binding fold change compared to LIBC523797-1(Fab) [2] [fold] | relative binding fold change compared to LIBC523797-1(Fab) [3] [fold] | relative binding fold change compared to LIBC523797-1(Fab) [4] [fold] | relative binding fold change compared to LIBC523797-1(Fab) [5] [fold] |
| --- | --- | --- | --- | --- | --- | --- | --- | --- | --- | --- |
| LIBC528141-1 (antibody, V domains shown) VH: QVQLQESGPGLVKPSQTLSLTCTVSGGSIRRGGDYWSWIRQHPGKGLEWIGHVYQTGSTKYNPRFKGRATISVNTYKNQFSLKLSSVTAADTAVYYCARDYDILTGYSYYYYGMDVWGQGTTVTVSS VL: DIQLTQSPSTLSASVGDRVTITCRASQSISNYLNWYQQKPGKAPKLLIYAASSLHSGVPSRFSGSGSGTDFTLTISSLQPEDFASYYCQQYQSYPLTFGQGTKVEIKR | 4.05 | 1.35 | 6.26 | 1.49 | 1.84 | 1.03 | – | – | – | – |
| LIBC528169-1 (antibody, V domains shown) VH: QVQLQESGPGLVKPSQTLSLTCTVSGGSIRRGGDYWSWIRQHPGKGLEWIGHIYQSGSTKYNPSFEDRATISVNTYKNQFSLKLSSVTAADTAVYYCARDYDILTGYSYYYYGMDVWGQGTTVTVSS VL: DIQLTQSPSTLSASVGDRVTITCRASQSISNYLNWYQQKPGKAPKLLIYAASSLHSGVPSRFSGSGSGTDFTLTISSLQPEDFASYYCQQYQSYPLTFGQGTKVEIKR | 7.81 | 2.6 | 12.3 | 2.92 | 3.31 | 1.85 | – | – | – | – |
| LIBC527827-1 (antibody, V domains shown) VH: QVQLQESGPGLVKPSQTLSLTCTVSGGSIRRGGDYWGWIRQHPGKGLEWIGHVYQSGQTAYNPKFENRATISVKTYKNQFSLKLSSVTAADTAVYYCARNYDTLTGHSYYYYGMDVWGQGTTVTVSS VL: DIQMTQSPSTLSASVGDRVTITCRASQSISNYLNWYQQKPGKAPKLLIYAASSLHSGVPSRFSGSGSGTDFTLTISSLQPEDFASYYCQQYQSYPLTFGQGTKVEIKR | 23.7 | 7.89 | 32 | 7.6 | 15.3 | 8.54 | – | – | – | – |
| LIBC527968-1 (antibody, V domains shown) VH: QVQLQESGPGLVKPSQTLSLTCTVSGGSIRRGGDYWSWIRQHPGKGLEWIGHIYQSGSTKYNPSFKDRATISVNTYKNQFSLKLSSVTAADTAVYYCARDYDILTGYSYYYYGMDVWGQGTTVTVSS VL: DIQLTQSPSTLSASVGDRVTITCRASQSISNYLNWYQQKPGKAPKLLIYAASSLHSGVPSRFSGSGSGTDFTLTISSLQPEDFASYYCQQYQSYPLTFGQGTKVEIKR | 4.03 | 1.34 | 6.1 | 1.45 | 1.95 | 1.09 | – | – | – | – |
| LIBC528148-1 (antibody, V domains shown) VH: QVQLQESGPGLVKPSQTLSLTCTVSGGSIRRGGDYWSWIRQHPGKGLEWIGHIYQSGQTKYNPKLKGRATISVDTYKNQFSLKLSSVTAADTAVYYCARDYDILTGYSYYYYGMDVWGQGTTVTVSS VL: DIQLTQSPSTLSASVGDRVTITCRASQSISNYLNWYQQKPGKAPKLLIYAASSLHSGVPSRFSGSGSGTDFTLTISSLQPEDFASYYCQQYQSYPLTFGQGTKVEIKR | 5.95 | – | 9.1 | – | – | – | – | – | – | – |
| LIBC527906-1 (antibody, V domains shown) VH: QVQLQESGPGLVKPSQTLSLTCTVSGGSIRRGGDYWGWIRQHPGKGLEWIGHIYQTGSTNYNPNFKDRATISVDTYKNQFSLKLSSVTAADTAVYYCARDYDILTGYSYYYYGMDVWGQGTTVTVSS VL: DIQLTQSPSTLSASVGDRVTITCRASQSISNYLNWYQQKPGKAPKLLIYAASSLHSGVPSRFSGSGSGTDFTLTISSLQPEDFASYYCQQYQSYPLTFGQGTKVEIKR | 5.15 | 1.72 | 7.66 | 1.82 | 2.64 | 1.48 | – | – | – | – |
| LIBC527912-1 (antibody, V domains shown) VH: QVQLQESGPGLVKPSQTLSLTCTVSGGSIRRGGDYWSWIRQHPGKGLEWIGYIYQTGQTKYNPNFEGRATISVNTYKNQFSLKLSSVTAADTAVYYCARDYDILTGYSYYYYGMDVWGQGTTVTVSS VL: DIQLTQSPSSLSASVGDRVTITCRASQSISSYLNWYQQKPGKAPKLLIYAASSLRSGVPSRFSGSGSGTDFTLTISSLQPEDFATYYCQQYSNYPLTFGGGTRVEIKR | 3.95 | 1.32 | 5.91 | 1.4 | 1.99 | 1.11 | – | – | – | – |
| LIBC674153-1 (Fab on yeast) (Fab, V domains shown, Clone of the Fab-yeast libraries) VH: QVQLQESGPGLVKPSQTLSLTCTVSGGSIRRGGDYWSWIRQHPGKGLEWIGHVYYTGSTAYNPSFRGRVRISVNTYKNQFSLKLSSVTAADTAVYYCARGYDTSGYSYYYYGLDVWGQGTTVTVSS VL: not shown | – | – | – | – | – | – | 1.83 | 1.35 | 0.33 | 2.62 |
| LIBC673982-1 (Fab on yeast) (Fab, V domains shown, Clone of the Fab-yeast libraries) VH: QVQLQESGPGLVKPSQTLSLTCTVSGGSIRRGGDYWSWIRQHPGKGLEWIGHIYYTGSTTYNPSFRGRVRISVNTYKNQFSLKLSSVTAADTAVYYCARDYDISGYSYYYYGMDVWGQGTTVTVSS VL: not shown | – | – | – | – | – | – | 0.78 | 1.24 | 0.6 | 2.16 |
| LIBC673948-1 (Fab on yeast) (Fab, V domains shown, Clone of the Fab-yeast libraries) VH: QVQLQESGPGLVKPSQTLSLTCTVSGGSIRRGGDYWSWIRQHPGKGLEWIGHIYYTGSTKYNPSLKNRVRISVNTYKNQFSLKLSSVTAADTAVYYCARGYDVSGYSYYYYGLDVWGQGTTVTVSS VL: not shown | – | – | – | – | – | – | 0.64 | 1.37 | 0.48 | 2.46 |
| LIBC673972-1 (Fab on yeast) (Fab, V domains shown, Clone of the Fab-yeast libraries) VH: QVQLQESGPGLVKPSQTLSLTCTVSGGSIRRGGDYWSWIRQHPGKGLEWIGHIYYTGQTAYNPNLRNRVRISVNTYKNQFSLKLSSVTAADTAVYYCARGYDASGYSYYYYGLDVWGQGTTVTVSS VL: not shown | – | – | – | – | – | – | 0.63 | 1.46 | 0.4 | 2.46 |
| LIBC673965-1 (Fab on yeast) (Fab, V domains shown, Clone of the Fab-yeast libraries) VH: QVQLQESGPGLVKPSQTLSLTCTVSGGSIRRGGDYWSWIRQHPGKGLEWIGHVYYTGQTAYNPSLRGRVRISVNTYKNQFSLKLSSVTAADTAVYYCARGYDTSGYSYYYYGLDVWGQGTTVTVSS VL: not shown | – | – | – | – | – | – | 0.65 | 1.3 | 0.43 | 2.5 |
| LIBC529593-1 (Fab) (Fab, V domains shown) VH: QVQLQESGPGLVKPSQTLSLTCTVSGGSIRRGGDYWSWIRQHPGKGLEWIGHIYYSGSTNYNPSLRSRVRISVDTSKNQFSLKLSSVTAADTAVYYCARDYDILTGYSYYYYGLDVWGQGTTVTVSS VL: not shown | – | – | – | – | – | – | 0.38 | 1.42 | 1.14 | 1.06 |
